Experimental data reported in PMC5430537, “The tarantula toxin β/δ-TRTX-Pre1a highlights the importance of the S1-S2 voltage-sensor region for sodium channel subtype selectivity” (Scientific Reports, 2017).
pEC50, pIC50: −log10 of the molar value. Bridge positions count the residues as written; N and C are the ends. Peptide text beside a SMILES is read from it.

Columns and labels:
[1] = target: human NaV1.5 α-subunit (human) (UniProt Q14524)
[2] = target: rat NaV1.3 α-subunit (rat) (UniProt P08104)
[3] = target: rat NaV1.4 α-subunit (rat) (UniProt P15390)
[4] = target: human NaV1.7 α-subunit (in oocytes) (human) (UniProt Q15858)
[5] = target: rat NaV1.2 α-subunit (rat) (UniProt P04775)
[6] = target: rat NaV1.3 α-subunit (rat) (UniProt P08104); remark: listed apart in the source
[7] = target: rat NaV1.3 α-subunit (rat) (UniProt P08104); remark: listed apart in the source
NaV channel DII = settings: mutagenesis; cited from earlier work
Source text: The striking differences in effects on NaV1.1, 1.2 and 1.3 are of particular significance for understanding the molecular basis of Pre1a’s subtype selectivity as these three channels have essentially identical S3-S4 linker regions in both DII and DIV (Fig. 7a) (note that NaV1.1 DII S3-S4 has an M to V ...

rNaV1.2 = target: T1, rNaV1.2 (Rattus norvegicus, UniProt P04775); experiment: Two-electrode voltage clamp, rNaV1.2 expressed in Xenopus oocytes; type: cell-based; settings: α-subunit alone, clamped at −90 mV, 50 ms step to −10 or 0 mV, recombinant Pre1a, n ≥ 5, read-out: peak current inhibition IC50
T1 construct: expressed in transfected cells; host or cells: Xenopus laevis oocytes (cRNA injection, alpha subunit alone)
Method: (§1) The preparation and injection of Xenopus laevis oocytes and NaV channel recordings using two-electrode voltage-clamp (TEVC) were carried out as described previously. Capped cRNA encoding rat NaV1.2, NaV1.3 and NaV1.4, and human NaV1.5 and NaV1.7 were injected at 20–40 ng of cRNA/oocyte and kept at 17–18 °C in ND96 solution containing (in mM) 96 NaCl, 2 KCl, 1 CaCl2, 2 MgCl2, 5 HEPES, 5 pyruvic acid, 50 µg/ml gentamicin (pH 7.4), and horse serum (2.5%). Membrane currents were recorded 2–5 days after injection. Oocytes were clamped at −90 mV and currents were elicited by a 50 ms depolarising step to −10 or 0 mV every 10 s for concentration response curves. Both peak and late current (50 ms post peak) were analysed. The concentration response curves were fitted to the Hill equation (GraphPad Prism 6). Current-voltage (I-V) relationships and voltage-dependence of fast inactivation were determined using a family of 100 ms conditioning pulses from −100 mV to +50 mV (+60 mV for rNaV1.3) in 5 mV steps, followed by a test depolarisation step to 0 mV with a 20 s sweep interval from a holding potential of −90 mV. […] The half-activation potential (V 1/2) was determined using a Boltzmann fit (GraphPad Prism 6). […]

hNaV1.1 [8] = target: T2, hNaV1.1 (Homo sapiens, UniProt P35498); experiment: QPatch automated patch clamp, HEK293 cells stably co-expressing hNaV1.1 and NaVβ1; type: cell-based; settings: HEK
Method: (§2) For patch clamp analysis, HEK293 cells stably co-expressing the hNaV1.1, hNaV1.6, or hNaV1.7 α-subunit with the NaVβ1-subunit (SB Drug Discovery) were cultured following manufacturer guidelines. Cells were removed from culture at 70% confluency using Detachin (Genlantis) and resuspended to 5 × 10^6 cells/mL in Ex-Cell ACF CHO Medium (Life Technologies) supplemented with 25 mM HEPES (Sigma-Aldrich) and 1 × Glutamax (Life Technologies) before being transferred to the Q-Patch Q-Stirrer and allowed to recover for 30 min before assay.
(§3) The external solution contained (in mM): 140 NaCl, 4 KCl, 2 CaCl2, 1 MgCl2, 10 HEPES, 20 TEA-Cl, 10 glucose, pH 7.4 (with NaOH) and adjusted to 315 mOsm 0.05% BSA was added to prevent adsorptive loss of peptide. The intracellular solution contained (in mM): 140 CsF, 1/5 EGTA/CsOH, 10 HEPES and 10 NaCl, pH 7.4 (with CsOH) and adjusted to 320 mOsm. Whole-cell patch-clamp experiments were performed at room temperature on a QPatch-16 automated electrophysiology platform (Biolin Scientific) using 16-channel planar patch chip plates (Q-Plates) with a patch hole diameter of 1 µm and resistance of 2 ± 0.1 MΩ. […] Pre1a concentrations were incubated for a fixed time of 5–10 min to allow steady-state activity, monitored by the I-T plot.

rNaV1.3 = target: T3, rNaV1.3 (Rattus norvegicus, UniProt P08104); experiment: Two-electrode voltage clamp, rNaV1.3 expressed in Xenopus oocytes; type: cell-based
T3 construct: expressed in transfected cells; host or cells: Xenopus laevis oocytes (cRNA injection, alpha subunit alone)
Source text: We analysed the rate of fast inactivation (defined as tau, τinact, or the time to reach 36.8% of a single exponential fit of the current decay) and the degree of persistent sodium current measured at 50 ms of depolarisation (NaV1.2 and 1.7) and 100 ms for rNaV1.3 due to the longer time required to reach complete inactivation in the oocyte expression system without β1.
The preparation and injection of Xenopus laevis oocytes and NaV channel recordings using two-electrode voltage-clamp (TEVC) were carried out as described previously. Capped cRNA encoding rat NaV1.2, NaV1.3 and NaV1.4, and human NaV1.5 and NaV1.7 were injected at 20–40 ng of cRNA/oocyte and kept at 17–18 °C in ND96 solution containing (in mM) 96 NaCl, 2 KCl, 1 CaCl2, 2 MgCl2, 5 HEPES, 5 pyruvic acid, 50 µg/ml gentamicin (pH 7.4), and horse serum (2.5%). Membrane currents were recorded 2–5 days after injection. Oocytes were clamped at −90 mV and currents were elicited by a 50 ms depolarising step to −10 or 0 mV every 10 s for concentration response curves. Both peak and late current (50 ms post peak) were analysed. The concentration response curves were fitted to the Hill equation (GraphPad Prism 6). Current-voltage (I-V) relationships and voltage-dependence of fast inactivation were determined using a family of 100 ms conditioning pulses from −100 mV to +50 mV (+60 mV for rNaV1.3) in 5 mV steps, followed by a test depolarisation step to 0 mV with a 20 s sweep interval from a holding potential of −90 mV. To determine the voltage-dependence of activation non-normalised peak current was used from the I-V family to calculate channel conductance using the equation: G(V) = I/(V − V rev), in which I, V, and V rev represent inward NaV current, test potential, and reversal potential, respectively. The half-activation potential (V 1/2) was determined using a Boltzmann fit (GraphPad Prism 6). All data points are shown as the pIC50 ± S.E.M., as well as the IC50. Replicates (n) represent separate experimental oocytes. Pre1a was resuspended in ND96 solution containing 0.1% bovine serum albumin for all activity analysis. […]

hNaV1.7 [9] = target: T4, hNaV1.7 (Homo sapiens, UniProt Q15858); experiment: Two-electrode voltage clamp, hNaV1.7 expressed in Xenopus oocytes; type: cell-based; set-up: expressed in transfected cells; host or cells: Xenopus laevis oocytes (cRNA injection, alpha subunit alone)
Method: as §1

hNaV1.6 = hNaV1.6 (Homo sapiens, UniProt Q9UQD0); experiment: QPatch automated patch clamp, HEK293 cells stably co-expressing hNaV1.6 and NaVβ1; type: cell-based; settings: HEK, with NaVβ1, QPatch16, 5–10 min incubation, holding −100 mV; n ≥ 6; read-out: peak current inhibition IC50
Method: as §2, §3

hNaV1.7 [10] = target: T4, hNaV1.7; experiment: QPatch automated patch clamp, HEK293 cells stably co-expressing hNaV1.7 and NaVβ1; type: cell-based
Method: as §2, §3

NaV1.7 VSD IV = settings: cited from earlier work
Source text: (§4) NaV channel fast inactivation is controlled by the movement of the DIV voltage-sensing domain[17]. […] However, all these peptides share less than 50% similarity with Pre1a (See Fig. 1d) and have very differ ...

NaV channels = settings: cited from earlier work
Source text: These VSD modulating peptides have been described to modify channel gating in three distinct ways depending on the domain they target and the effect on that domain[17]. Domain IV of the NaV channel α-subunit uniquely controls inactivation of the channel, thus spider peptides that interact with and hinder the normal function of VSDIV slow or inhibit fast inactivation of the channel and may result in persistent current. Conversely, spider venom peptides that interact with DI, DII, and DIII VSD modulate channel activation. Most of those discovered to date cause a shift in the voltage- ... || NaV channel fast inactivation is controlled by the movement of the DIV voltage-sensing domain[17]. […] However, all these peptides share less than 50% similarity with Pre1a (See Fig. 1d) and have very differ ...

hNaV1.1 [11] = target: T2, hNaV1.1; settings: hNaV1.3 and hNaV1.1 peak current; cited from earlier work
Source text: as §4

hNaV1.3 = hNaV1.3 and hNaV1.1 peak current; cited from earlier work
Source text: as §4

[12] = target: human NaV1.1 α-subunit (in HEK293 cells) (human) (UniProt P35498)
[13] = target: human NaV1.1 α-subunit (in HEK293 cells) (human) (UniProt P35498); remark: listed apart in the source
[14] = target: human NaV1.6 α-subunit (in HEK293 cells) (human) (UniProt Q9UQD0)
[15] = target: human NaV1.7 α-subunit (in HEK293 cells) (human) (UniProt Q15858)
[16] = target: KV2.1 chimaera with the S3-S4 linker region of hNaV1.7 DIV
[17] = target: KV2.1 chimaera with the S3-S4 linker region of hNaV1.7 DII
[18] = target: rat NaV1.3 α-subunit (rat) (UniProt P08104); remark: listed apart in the source
[19] = target: human NaV1.7 α-subunit (in oocytes) (human) (UniProt Q15858); remark: listed apart in the source
[20] = target: rat NaV1.2 α-subunit (rat) (UniProt P04775); remark: listed apart in the source

Sequence of rat NaV1.3 α-subunit (rat) (P08104 whole entry): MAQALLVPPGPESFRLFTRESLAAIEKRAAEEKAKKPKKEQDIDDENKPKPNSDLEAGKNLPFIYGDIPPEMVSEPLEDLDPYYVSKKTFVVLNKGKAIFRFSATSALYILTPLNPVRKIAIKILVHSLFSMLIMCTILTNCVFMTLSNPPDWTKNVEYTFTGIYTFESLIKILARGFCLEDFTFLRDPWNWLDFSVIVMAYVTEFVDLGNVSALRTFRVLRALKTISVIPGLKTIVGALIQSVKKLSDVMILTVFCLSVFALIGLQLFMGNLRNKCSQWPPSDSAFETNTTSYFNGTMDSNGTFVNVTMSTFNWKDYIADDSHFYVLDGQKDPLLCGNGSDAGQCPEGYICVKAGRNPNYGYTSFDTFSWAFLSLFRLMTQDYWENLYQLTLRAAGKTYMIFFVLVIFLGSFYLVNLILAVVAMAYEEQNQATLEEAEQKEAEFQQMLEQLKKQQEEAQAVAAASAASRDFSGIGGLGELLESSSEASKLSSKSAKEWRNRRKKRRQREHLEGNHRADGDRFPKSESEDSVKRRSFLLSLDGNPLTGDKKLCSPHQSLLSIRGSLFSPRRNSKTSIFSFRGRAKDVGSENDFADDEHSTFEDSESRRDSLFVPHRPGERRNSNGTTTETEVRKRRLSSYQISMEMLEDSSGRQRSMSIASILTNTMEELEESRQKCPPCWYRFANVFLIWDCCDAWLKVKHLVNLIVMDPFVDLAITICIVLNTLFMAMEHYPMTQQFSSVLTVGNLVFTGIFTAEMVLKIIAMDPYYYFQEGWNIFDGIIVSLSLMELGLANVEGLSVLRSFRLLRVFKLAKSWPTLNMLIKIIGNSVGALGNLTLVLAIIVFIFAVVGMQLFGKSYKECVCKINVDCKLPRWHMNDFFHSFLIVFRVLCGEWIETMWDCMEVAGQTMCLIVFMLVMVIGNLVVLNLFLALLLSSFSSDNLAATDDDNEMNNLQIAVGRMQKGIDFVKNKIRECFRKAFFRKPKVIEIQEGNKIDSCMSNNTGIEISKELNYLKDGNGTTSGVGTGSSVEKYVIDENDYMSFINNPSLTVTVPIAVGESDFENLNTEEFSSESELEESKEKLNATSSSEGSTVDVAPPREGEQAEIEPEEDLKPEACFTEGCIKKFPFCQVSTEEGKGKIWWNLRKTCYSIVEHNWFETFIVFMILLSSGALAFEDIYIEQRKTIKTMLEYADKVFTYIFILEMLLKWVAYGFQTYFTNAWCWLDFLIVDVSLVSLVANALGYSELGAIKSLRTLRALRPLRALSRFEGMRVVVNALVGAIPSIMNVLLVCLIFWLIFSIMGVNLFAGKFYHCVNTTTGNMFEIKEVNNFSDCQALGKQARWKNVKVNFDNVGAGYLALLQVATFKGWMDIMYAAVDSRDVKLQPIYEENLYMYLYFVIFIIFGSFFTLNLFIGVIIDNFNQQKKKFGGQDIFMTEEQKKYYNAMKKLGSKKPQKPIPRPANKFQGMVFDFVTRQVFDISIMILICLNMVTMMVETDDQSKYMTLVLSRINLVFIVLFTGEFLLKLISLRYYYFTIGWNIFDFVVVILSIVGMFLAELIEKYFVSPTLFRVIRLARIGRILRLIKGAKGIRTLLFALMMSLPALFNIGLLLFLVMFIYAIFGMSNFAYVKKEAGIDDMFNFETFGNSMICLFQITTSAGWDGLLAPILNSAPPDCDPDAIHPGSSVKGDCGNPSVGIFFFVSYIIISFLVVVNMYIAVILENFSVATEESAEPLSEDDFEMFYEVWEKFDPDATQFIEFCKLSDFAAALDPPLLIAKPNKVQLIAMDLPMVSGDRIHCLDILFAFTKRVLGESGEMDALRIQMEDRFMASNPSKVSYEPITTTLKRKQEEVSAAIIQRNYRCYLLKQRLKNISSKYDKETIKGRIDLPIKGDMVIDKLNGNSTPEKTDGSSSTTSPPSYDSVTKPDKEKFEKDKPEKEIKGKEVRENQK
T3 sequence (P08104 whole entry): as above
Sequence of rat NaV1.2 α-subunit (rat) (P04775 whole entry): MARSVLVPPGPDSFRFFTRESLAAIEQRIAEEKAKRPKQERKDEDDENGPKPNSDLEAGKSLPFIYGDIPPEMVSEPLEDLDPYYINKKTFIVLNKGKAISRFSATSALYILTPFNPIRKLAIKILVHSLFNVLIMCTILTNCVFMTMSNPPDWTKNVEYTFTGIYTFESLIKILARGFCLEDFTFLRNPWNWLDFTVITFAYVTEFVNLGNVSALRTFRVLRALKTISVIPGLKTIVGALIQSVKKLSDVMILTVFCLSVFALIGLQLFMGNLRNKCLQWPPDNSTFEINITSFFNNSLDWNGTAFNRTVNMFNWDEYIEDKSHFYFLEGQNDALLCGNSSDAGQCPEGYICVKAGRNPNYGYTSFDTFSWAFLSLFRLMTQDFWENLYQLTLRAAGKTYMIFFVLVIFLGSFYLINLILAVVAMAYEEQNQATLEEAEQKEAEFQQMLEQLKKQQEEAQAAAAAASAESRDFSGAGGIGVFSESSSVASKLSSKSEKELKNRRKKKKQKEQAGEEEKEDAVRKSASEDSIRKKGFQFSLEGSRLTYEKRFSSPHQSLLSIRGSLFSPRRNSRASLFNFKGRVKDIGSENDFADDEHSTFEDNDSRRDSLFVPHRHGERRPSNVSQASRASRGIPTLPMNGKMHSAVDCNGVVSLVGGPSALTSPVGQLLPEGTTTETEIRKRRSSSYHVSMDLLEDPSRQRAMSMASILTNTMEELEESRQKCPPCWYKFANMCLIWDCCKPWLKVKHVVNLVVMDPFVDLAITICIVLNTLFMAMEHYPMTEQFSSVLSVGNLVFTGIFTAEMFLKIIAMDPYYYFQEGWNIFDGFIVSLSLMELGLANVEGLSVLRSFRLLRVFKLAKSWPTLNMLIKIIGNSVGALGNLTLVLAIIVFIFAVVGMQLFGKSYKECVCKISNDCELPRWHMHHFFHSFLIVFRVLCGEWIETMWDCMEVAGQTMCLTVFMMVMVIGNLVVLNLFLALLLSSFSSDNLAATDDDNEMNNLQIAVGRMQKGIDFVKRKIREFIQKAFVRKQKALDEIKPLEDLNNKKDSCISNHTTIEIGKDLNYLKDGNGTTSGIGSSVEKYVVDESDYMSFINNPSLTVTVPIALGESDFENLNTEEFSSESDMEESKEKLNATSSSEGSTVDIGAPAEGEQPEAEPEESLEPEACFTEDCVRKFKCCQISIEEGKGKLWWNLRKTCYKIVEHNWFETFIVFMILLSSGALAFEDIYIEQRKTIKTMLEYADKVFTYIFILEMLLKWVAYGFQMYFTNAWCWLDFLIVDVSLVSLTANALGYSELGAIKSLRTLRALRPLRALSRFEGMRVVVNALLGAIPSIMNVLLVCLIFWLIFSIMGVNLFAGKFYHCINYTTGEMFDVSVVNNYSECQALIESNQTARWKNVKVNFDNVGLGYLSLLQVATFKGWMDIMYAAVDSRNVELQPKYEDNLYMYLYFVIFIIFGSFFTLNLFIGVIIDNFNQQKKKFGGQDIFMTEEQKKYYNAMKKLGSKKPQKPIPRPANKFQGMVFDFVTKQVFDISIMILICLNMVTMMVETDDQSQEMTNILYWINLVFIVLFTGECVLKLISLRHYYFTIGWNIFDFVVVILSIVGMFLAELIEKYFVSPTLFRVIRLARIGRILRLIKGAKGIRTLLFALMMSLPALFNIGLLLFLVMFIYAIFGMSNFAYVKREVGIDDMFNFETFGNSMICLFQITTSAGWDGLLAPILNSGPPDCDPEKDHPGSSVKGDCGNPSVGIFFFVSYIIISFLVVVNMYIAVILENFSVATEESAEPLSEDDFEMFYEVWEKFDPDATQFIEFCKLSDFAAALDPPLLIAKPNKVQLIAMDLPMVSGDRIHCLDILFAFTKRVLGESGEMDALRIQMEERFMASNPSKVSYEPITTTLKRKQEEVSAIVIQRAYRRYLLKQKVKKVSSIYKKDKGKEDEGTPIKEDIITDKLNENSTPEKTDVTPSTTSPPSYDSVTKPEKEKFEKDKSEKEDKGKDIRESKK
T1 sequence (P04775 whole entry): as above

With recombinant β/δ-TRTX-Pre1a (peptide) the percent inhibition of peak current amplitude by 1 μM Pre1a (weak), two-electrode voltage clamp, Xenopus oocytes [1] was 8.6%, the IC50 of inhibition of peak inward current (weak), two-electrode voltage clamp, Xenopus oocytes [2] was 8000 nM and the percent inhibition of peak current amplitude by 1 μM Pre1a (weak), two-electrode voltage clamp, Xenopus oocytes [3] was 16.5%. For the same molecule, the IC50 of inhibition of peak inward current, two-electrode voltage clamp, Xenopus oocytes [4] was 114 nM, the IC50 of inhibition of peak inward current, two-electrode voltage clamp, Xenopus oocytes [5] was 190 nM and the EC50 of inhibition of inactivation (late current at 100 ms), two-electrode voltage clamp, Xenopus oocytes [6] was 45.5 nM. For the same molecule, the EC50 of inhibition of inactivation (late current), as printed in the legend, Xenopus oocytes [7] was 45 nM.

For HwTxIV, the “effect of divergent residues in S2 region 1 on activity” value (NaV channel DII) is listed as “little effect on the activity”.

Work on CC[C@H](C)[C@H](NC(=O)[C@H](CCCCN)NC(=O)[C@H](Cc1ccc(O)cc1)NC(=O)[C@H](CCCCN)NC(=O)[C@@H]1CSSC[C@@H]2NC(=O)[C@H](CCCCN)NC(=O)[C@H](CC(=O)O)NC(=O)[C@H](CC(N)=O)NC(=O)[C@H](CCCCN)NC(=O)[C@@H]3CCCN3C(=O)[C@H](CO)NC(=O)[C@@H]3CSSC[C@H](NC(=O)[C@H](CCCCN)NC(=O)[C@H](Cc4ccc(O)cc4)NC(=O)[C@H](CC(N)=O)NC(=O)[C@@H]4CCCN4C(=O)[C@H](CSSC[C@H](NC(=O)[C@H](CC(=O)O)NC(=O)[C@@H](N)CCC(=O)O)C(=O)N[C@@H](CC(C)C)C(=O)NCC(=O)N[C@@H](Cc4c[nH]c5ccccc45)C(=O)N[C@@H](Cc4ccccc4)C(=O)N[C@@H](CO)C(=O)N[C@@H](CCCNC(=N)N)C(=O)N3)NC2=O)C(=O)N[C@@H](CO)C(=O)N[C@@H](CO)C(=O)N[C@@H](CCCCN)C(=O)N[C@@H](CC(=O)O)C(=O)N[C@@H](CC(C)C)C(=O)N[C@@H](Cc2c[nH]c3ccccc23)C(=O)N1)C(=O)N[C@@H](Cc1c[nH]c2ccccc12)C(=O)O [Pre1a] (H-EDCLGWFSRCSPKNDKCCPNYKCSSKDLWCKYKIW-OH; disulfide 3-18, 10-23, 17-30) yielded a pIC50 (rNaV1.2) of 6.72, an IC50 (hNaV1.1 [8]; QPatch16, read-out: peak current inhibition pIC50 (converted)) of 57.5 nM and an EC50 (hNaV1.1 [8]; late current at 10 ms from peak, read-out: inhibition of fast inactivation pEC50 (converted)) of 41.7 nM. For the same molecule, the pEC50 (rNaV1.3; late current at 100 ms, ± S.E.M.) was 7.34, the “selectivity for inhibiting inactivation over activation” value (rNaV1.3; rNaV1.3 inactivation vs activation) was “more than 150 fold” and the IC50 (rNaV1.3; recombinant Pre1a, ± S.E.M., read-out: peak current inhibition pIC50 (converted)) was 7940 nM. The pIC50 (hNaV1.7 [9]) was 6.94, the “selectivity for inhibiting activation over NaV1.3” value (hNaV1.7 [9]; NaV1.7 activation vs NaV1.3) was ~ 70 fold and the pIC50 (hNaV1.6) was 6.65. For the same molecule, the pIC50 (hNaV1.7 [10]) was 7.82.

In the case of CCN1CC(n2nccc2-c2cc(C(F)(F)F)ccc2Oc2ccc(S(=O)(=O)Nc3ncns3)cc2C#N)C1 [GX-936], the “state in which VSD is arrested” value (NaV1.7 VSD IV) is given as “arrests the VSD in the inactivated state”.

In the case of ProTx-II: spider peptide, the “effect on peak current and fast inactivation” value (NaV channels) is given as “inhibit both peak current and fast inactivation of NaV channels”.

In the case of O=C(Nc1ccc(S(=O)(=O)Nc2nccs2)cc1)C(c1ccccc1)c1ccccc1 [ICA-121431], the selectivity (hNaV1.1 [11]) is listed as ~ 1000 fold and the selectivity (hNaV1.3) is listed as ~ 1000 fold.

For “β/δ-TRTX-Pre1a (synthetic or recombinant not stated for the experiment) (peptide)”, the EC50 of inhibition of fast inactivation (late current at 10 ms from peak), QPatch, HEK cells [12] was 41.4 nM, the IC50 of inhibition of peak current, QPatch16 automated patch clamp, HEK cells [13] was 57.1 nM and the IC50 of inhibition of peak current, QPatch16 automated patch clamp, HEK cells [14] was 222 nM. The IC50 of inhibition of peak current, QPatch16 automated patch clamp, HEK cells [15] was 15 nM, the percent inhibition of outward (peak) current by 1 μM Pre1a [16] was 27.1% and the percent inhibition of outward (peak) current by 1 μM Pre1a [17] was 44%. The shift of the V1/2 of activation of the late current by 1 μM Pre1a, Xenopus oocytes [18] was 9.6 mV, the shift of the V1/2 of activation by 1 µM Pre1a, Xenopus oocytes [19] was 13.8 mV and the shift of the V1/2 of activation by 1 µM Pre1a, Xenopus oocytes [20] was 14.9 mV.
